Results taken from US20260274928A1 (VIR BIOTECHNOLOGY, published 2026).
Positions count from the first letter of the chain named. Like-named read-outs stand apart in the source and are kept apart here.

B1: S3L17 (antibody, V domains shown)
VH: EVQLVESGGGLVQPGGSLRLSCAASEIIVSSNYMNWVRQAPGKGLEWVSVIYAGGSTFYADSVRGRFTISRDNSKNTLYLQMNSLRPDDTAIYYCARDLGPWGMDVWGQGTTVTVSS
VL: DIQMTQSPSSLSASVGDRVAITCRASHGINNDLAWYQQKPGKVPKLLIYAASTLQSGVPSRFSGSGSGTDFTLTISSLQPEDVATYYCQHYSSDPRFTFGPGTKVDIK
B2: S2V29-v1.2 (antibody, V domains shown)
VH: EVQLVESGGSVVQPGRALRLSCAASGITFSSFGMYWVRQAPGKGLEWLGVIAYDGSNTYYADSVKGRFTISRDNSKNTLYLQMNSLRIEDTAVYYCAKDYYPLLSYYYGLDVWGQGTTVTVSS
VL: QSVLTQPRSVSGSPGQSVTISCTGTSSDVGAYNYVSWYQQHPGKAPKFMIYDVDQRPSGVPDRFSGSKSGNTASLIISGLQAEDEADYYCSSYAGSYIWVFGGGTQLTVL
B3: S2V29-v37.2 (antibody, V domains shown)
VH: B2 VH with V50Y, N57D
VL: B2 VL

How the values were obtained:
SARS-CoV-2 BA.1 RBD = SARS-CoV-2 BA.1 RBD (SARS-CoV-2 BA.1, UniProt P0DTC2 328-531); assay: RBD binding affinity (SPR, see Example 5)
[1] = molecular target: SARS-CoV-2 BQ.1.1 S glycoprotein (SARS-CoV-2 BQ.1.1); assay: cell-based or functional assay
[2] = molecular target: SARS-CoV-2 XBB.1.5 S glycoprotein (SARS-CoV-2 XBB.1.5); assay: cell-based or functional assay
[3] = molecular target: SARS-CoV-2 BA.5 S glycoprotein (SARS-CoV-2 BA.5); assay: cell-based or functional assay
[4] = molecular target: SARS-CoV-2 BQ.1.1 S glycoprotein (SARS-CoV-2 BQ.1.1); assay: cell-based or functional assay; remark: listed apart in the source
[5] = molecular target: SARS-CoV-2 BQ.1.1 S glycoprotein (SARS-CoV-2 BQ.1.1); assay: cell-based or functional assay; remark: listed apart in the source

Binder	Kd (SARS-CoV-2 BA.1 RBD)	IC50 [1]	IC50 [2]	IC50 [3]	FC vs S2V29-v1.2 [1]	IC50 [4]	FC IC50 par/IC50 Var [5]	IC50 [5]	FC vs S2V29-v1.2 [3]
B1	0.08 nM								
B2	0.05 nM	9 ng/mL	5.2 ng/mL	2.6 ng/mL					
B3	0.39 nM	5.6 ng/mL		2.1 ng/mL	1.6 fold	5 ng/mL	1.4 fold	5.6 ng/mL	1.2 fold
